This note sets out measurements from patent US6887705B1, “Tyrosine phosphorylated cleavage furrow-associated proteins (PSTPIPs)” (Genentech, Inc., priority 1997, dated 2005).

The assay has as its system PSTPIP tyrosine phosphorylation. The experiment in a line: Tyrosine phosphorylation of PSTPIP in COS cells co-transfected with V-src. The conditions noted are these: COS cells. In kind it is cell-based. On the procedure: Baf3 cells were lysed in 1% Triton, 50 mM HEPES. 10% glycerol and 5 mM EDTA containing 1 μg/ml aprotinin, PMSF, leupeptin and pepstatin were 1 mM Sodium Vanadate and 10 mM Iodoacetic acid. Cells were treated with 0.1 mM Pervanadate for 4 hours before lysis. Immunoprecipitations were performed in the vanadate-containing lysis buffer using 1 μg/ml anti-PSTPIP polyclonal antibody and 400 μg of lysate protein at 4° C. overnight. Western blots were performed using 1 μg/ml affinity purified anti-PSTPIP or 1:5000 dilution of commercial 4G10 anti-phosphotyrosine monoclonal (Upstate Biotech). Signal was detected by HRPO-ECL reagents (Pierce). The C221-S mutant was as previously described (Cheng et al., (1996) supra). The PTP HSCF D197-A mutant was generated using PCR. Mutagenesis primer D197A.F ([…]) (SEQ ID NO:24), corresponding to nucleotide 591, and primer D197A.R ([…]) (SEQ ID NO:25) which corresponds to the stop codon, were used in PCR to generate a fragment that could be cut with Mscl and XbaI. pRK.HA.38 WT, a plasmid which encoded the wild type enzyme under the control of the cytomegalovirus promoter (Cheng et al., (1996) supra), was digested with Clal and Mscl and the resulting 600 bp fragment was ligated with the Mscl-Xbal PCR fragment into the Clal and Xbal sites of the pRK.tkneo. A plasmid encoding the V-src oncogene under the control of the SV40 early promoter was the kind gift of Dr. Art Levinson (CEO-Genetech, Inc.). NIH 3T3 cells and the COS-7 cells were cultured in high glucose DMEM supplemented with 10% FBS, 2 mM L-Glutamine, 10 mM HEPES pH 7.2 and pen-strep.
COS-7 cells were transfected by electroporation. Briefly, 1.5×10^6 COS-7 cells were mixed with 24 μg total DNA in PBS and electroporated at 960 μF, […] (Bio-Rad™ Gene Pulsar™). Following electroporation, cells were seeded in 10 cm dishes and incubated for 3 days. 10-cm dishes of transfected COS cells were washed twice with ice-cold PBS, and lysed in 1 ml of M-RIPA (50 mM Tris 7.4, 1% NP40, 0.25% DOC, 150 mM NaCl, 1 mM sodium ortho-vanadate, 1 mM NaF plus Complete™ Protease Inhibitors (Boehringer Mannheim)). Lysates were incubated for 15 minutes with 100 μl UltraLink Immobilized Protein A/G™ (Pierce) at 4° C., followed by centrifugation for 5 minutes. Supernatants were collected and stored at −70° C. or directly immunoprecipitated. 5 μg of M2 or 12CA5 was added to 500 μl of lysate and incubated overnight at 4° C. Ultralink Protein A/G™ was added and incubation continued for 2 hours at 4° C. The immune complexes were washed 3 times with M-RIPA. The proteins were subjected to SDS-PAGE and transferred to nitrocellulose in 1X Transfer Buffer™ (Novex). Immunoblots were blocked overnight at 4° C. in 3% milk/PBS. To detect Flag-tagged PIP, blots were incubated with 10 μg/ml Bio-M2 (Biotinylated anti-FLAG monoclonal Ab, KODAK) followed by incubation in 10 μg/ml streptavidin-HRP (UBI). To detect HA-tagged PTPhscf, blots were incubated in anti-(HA)-peroxidase (Boehringer Mannheim) as per manufacturer's instructions. To detect phosphotyrosine, blots were incubated in HRP-conjugated 4G10 (anti-phosphotyrosine monoclonal, UBI) as per manufacture's instructions.
COS cells were transfected with a constant amount of either the wild type of W232A mutant of PST PIP and cotransfected with increasing amounts of a plasmid encoding the v-Src tyrosine kinase (Spencer et al, (1997), supra). Plasmid concentrations were equalized with an empty vector containing the CMV promoter. After 48 hours, lysates were prepare and immunoprecipitated with anti-FLAG monoclonal antibody. Precipitates were run on SDS polyacrylamide gels, blotted, and probed with either anti-FLAG antibody or anti-phosphotyrosine antibody as previously described (Spencer et al, (1997), supra). Bound antibodies were visualized using enhanced chemiluminescent reagents.

B1: PSTPIP: murine PST Phosphatase Interacting Protein, 415 residues (SEQ ID NO:1) (protein)
chain: MMAQLQFRDAFWCRDFTAHTGYEVLLQRLLDGRKMCKDVEELLRQRAQAEERYGKELVQIARKAGGQTEMNSLRTSFDSLKQQTENVGSAHIQLALALREELRSLEEFRERQKEQRKKYEAIMDRVQKSKLSLYKKTMESKKAYDQKCRDADDAEQAFERVSANGHQKQVEKSQNKAKQCKESATEAERVYRQNIEQLERARTEWEQEHRTTCEAFQLQEFDRLTILRNALWVHCNQLSMQCVKDDELYEEVRLTLEGCDVEGDINGFIQSKSTGREPPAPVPYQNYYDREVTPLIGSPSIQPSCGVIKRFSGLLHGSPKTTPSAPAASTETLTPTPERNELVYASIEVQATQGNLNSSAQDYRALYDYTAQNSDELDISAGDILAVILEGEDGWWTVERNGQRGFVPGSYLEKL
modifications: Mus Musculus
For B1, the “tyrosine phosphorylation of PST PIP forms in the presence of dominant negative PTP HSCF C-S (substrate trapping)” value (“tyrosine phosphorylation … (substrate trapping)” below) (listed as PST PIP wt) is “hyperphosphorylated” and the “tyrosine phosphorylation … (substrate trapping)” value (listed as wild type PST PIP) is on record as “enhanced tyrosine phosphorylation”.

B2: W232A mutant of PST PIP, C-terminal FLAG (other)
chain: MMAQLQFRDAFWCRDFTAHTGYEVLLQRLLDGRKMCKDVEELLRQRAQAEERYGKELVQIARKAGGQTEMNSLRTSFDSLKQQTENVGSAHIQLALALREELRSLEEFRERQKEQRKKYEAIMDRVQKSKLSLYKKTMESKKAYDQKCRDADDAEQAFERVSANGHQKQVEKSQNKAKQCKESATEAERVYRQNIEQLERARTEWEQEHRTTCEAFQLQEFDRLTILRNALAVHCNQLSMQCVKDDELYEEVRLTLEGCDVEGDINGFIQSKSTGREPPAPVPYQNYYDREVTPLIGSPSIQPSCGVIKRFSGLLHGSPKTTPSAPAASTETLTPTPERNELVYASIEVQATQGNLNSSAQDYRALYDYTAQNSDELDISAGDILAVILEGEDGWWTVERNGQRGFVPGSYLEKLDYKDDDDK
notes: In vitro translated or expressed in COS cells; also called W232A PST PIP; PST PIP with an alanine replacement mutation at tryptophan232
Turning to B2, the “efficiency of tyrosine phosphorylation in the presence of v-Src versus wild type” value is recorded as “significantly more efficiently tyrosine phosphorylated” and the “tyrosine phosphorylation … (substrate trapping)” value is given as “not hyperphosphorylated”. Besides, under “increasing v-Src plasmid”, the “levels of phosphotyrosine in mutant versus wild type PST PIP, densitometry” value was 2-3 fold.
